Assay: yeast display, Sf9 membrane polyspecificity reagent, FACS + sequencing; frameworks hold sequencing errors
Summary of the method: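 Galactose-induced (36–48 hours) yeast carrying a synthetic nanobody display library were exposed to 10% biotinylated, detergent-solubilized Sf9 membrane reagent at 4 °C for 1 hour. FACS followed streptavidin microbead enrichment, using low and high (top ~1%) gates for expression (anti-HA) and reagent binding (streptavidin). Colony PCR, MiSeq 2 × 250 sequencing and CDR-length filtering followed. Labels for polyreactivity reflect the gate of origin.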

Row | Sequence | polyreactivity (PSR sort gate)
1 | QVQLVESGGGLVQAGGSLRLSCAASGYFDLNAMGWYRQAPGKERELVAAITDGGSTNYADSVKGRFTISRDNAKNTVYLQMNSLKPEDTAVYYCAADRGHTILHGGYWGQGTQVTVSS | low polyreactivity
2 | QVQLVESGGGLVQAGGSLRLSCAASGRTFTPYDMGWYRQAPGKERELVAAITWRGGSTYYADSVKGRFTISRDNAKNTVYLQMNSLKPEDTAVYYCAKDRWTYAFRVGYGYWGQGTQVTVSS | high polyreactivity
3 | QVQLVESGGGLVQAGGSLRLSCAASGSIFSVNDMGWYRQAPGKERELVAAISSGGSTNYADSVKGRFTISRDNAKNTVSLQMNSLKPEDTAVYYCNTVVRGWSSSAYDYWGQGTQVTVSS | low polyreactivity
4 | QVQLVESGGGLVQAGGSLRLSCAASGFTFWRYAMGWYRQAPGKERELVAAISRNGGRTYYADSVKGRFTISRDNAKNTVYLQMNSLKPEDTAVYYCAADSDIEYEYWGQGTQVTVSS | high polyreactivity
5 | QVQLVESGGGLVQAGGSLRLSCAASGRTFTPNAMGWYRQAPGKERELVASIRRGTSTYYADSVKGRFTISRDNAKNTVYLQMNSLKPEDTAVYYCAAKSYHGYPFDYWGQGTQVTVSS | high polyreactivity
6 | QVQLVESGGGLVQAGGSLRLSCAASGRIFRGYAMGWYRQAPGKERELVAAITRGGSTKYADSVKGRFTISRDNAKNTVYLQMNSLKPEDTAVYYCAKDSYPYVPLYRSRSLYGYWGQGTQVTVSS | high polyreactivity
7 | QVQLVESGGGLVQAGGSLRLTCPASGGIFYDYSMVWYRQAPGKERQLVAAITRSGDSTYYADSVKGRFTISRDNAKNTVYLQMNSLKPEDTAVYYCAADIWSSDYEEFYYWVQGTQVTVSS | low polyreactivity
8 | QVQLVESGGGLVQAGGSLRLSCAASGSIFQRYAMGWYRQAPGKERECVAAISGRGGSTYYADSVKGRFTISRDNAKNTVYLQMNSLKPEDTAVYYCAADSSRFYGRPRYYYWGQGTQVTVSS | high polyreactivity
9 | QVQLQESGGRLVQAGGSMRLSCAASGTISDSGLMGWYRQAPGKERELVAGISSGGITNYADSVKGRFTISRDNAKNTVSLQMNSLKPEDTAVYWGQGTQVTVSS | low polyreactivity
10 | QVQLVESGGGLVQAGGSLRLSCAASGSIFGPYVKGWYSQAPGKEREFVAAIRGSGGSTYYADSVKGRFTISRDNAKKTVYLQMNSLKPEDTAVYYCNARLKYTLYYYWGQGTQVTVSS | high polyreactivity
11 | QVQLVESGGGLVQAGGSLRLSCAASGSIFAFNVMGWYRQAPGKERELVAAITWGGRTYYADSVKGRFTISRDNAKNTVYLQMNSLKPEDTAVYYCAAYPLYRVSHGYEYNYWGQGTQVTVSS | high polyreactivity
12 | QVQLVESGGGLVQAGGTLRLRCAASGSTFFPYAIGWYRPAPGKEWELVAAITSGGRTHYADSVKGRFTISRDNAKNTVYLQMMSLIPEDSAVYYCAAVVPRHLLTYRMDYWGQGNQVTVSS | high polyreactivity
13 | QVQLVESVGGLVQAGGSLRLSCAASGLTCYGKTMGWYRQAPGKDRELVAAISFDGGNTYADSVKGRFTISRDNAKNTVYLQMNSLKPEDTAVYYDYWGQGNQVTVSS | low polyreactivity
14 | QVQIVESGGGLVQAGGSLRLSCPASGGIFTKNAMGWYRQAPGKERELVAGISRTGGNTYYADSVKGRFTISRDNAKNNVYLQMKSLKPEDTAVYYCKALYGGPHRLRYDYWGQGTQVTVSS | low polyreactivity
15 | QVQLEESGGGLVQAGGSLRLSCAASGSTFYLYDMGWYRQAPGKERELVATITSATSTTYADSVKGRFTISRDNATNTVYLQMNSLNPEHTAVYYCNATDVGIITVGYGHGGYYWGQGTQVTVSS | low polyreactivity
16 | QVQLVESGGGLVHAGGSLRLSCAASARIFIAYMAWYRQAPGKERELVAAIDSGASTYYADSVKGRFTISRDNANNTVYLQMNSLKPEDTAVYYCAADVVYDYGGMDYWGQGTQVTVSS | low polyreactivity
17 | QVQLVESGGGLVQAGGSLRLSCAASGITFWYYAMGWYRQAPRKERELVAAISWDGGSTYYADSVKGRFTISRDNAKNTVYVQMNSLKPEDTAVYYCNAVRYLERKYDYWGQGTQVTVSS | high polyreactivity
18 | QVQLVESGGGLVQAGGSLRLSCAASGRIFINDMGWYRQAPGKERELVAAIRSDGSTNYADSVKGRFTISRDNAKNTVYLQMNSLKPEDTAVYYCNVDGYFLFVRGYEYWGQGTQVTVSS | low polyreactivity
19 | QVQLVESGGGLVQAGGSLRLSCAASGGTFYTNVMGWYRQAPGKERELVAAITRSGGSTHYADSVKGRFTISRDNAKNTVYLQMNSLKPEDTAVYYCAKDRVGEMYYWGQGTQVTVSS | low polyreactivity
20 | QVQLVESGGGLVQAGGSLRLSCAASGNIFSTYAMGWDRQAPGKERELVAAISSRGTSTYYADSVKGRFTISRDNAKNTVYLQMNSLKPEDTAVYYCNAVIALQLDYWGQGTQVTVSS | high polyreactivity
21 | QVQLVESGGGLVQAGGSLRLSCAASGRTFRSIAMGWYRKAPGKERELVAAITSSGGRTYYADSVKGRFTISRDNAKNTVYVQMNSLTPEDTAVYYCNAGRQHPPRYSSYDYWGQGTQVTVSS | high polyreactivity
22 | QVQLVESGGGLVQAGGSLRLSCAASGSTSDINAMGWYRQAPGKERELVAVITDSSNTDYADSVKGRFTISRDNAKNTVYLQMNSLKPEDTADDYCAADRDEPDPYDYWGQGTQVTVSS | low polyreactivity

Row | Sequence | polyreactivity (PSR sort gate)
23 | QVQLVESGGGIVQAGGSLRLSWAASGSINYRNARGCYRQAPGKERELVAAISSDGSTNYADSVKGRFTISRDNAKNTVYLQMNRLKPEDTAVYSCASPWTQILDYWGKGTQVTVSS | low polyreactivity
24 | QVQLVESGGGLVQAGGSLRLTCAASGFTVHNKVMGWYRQAPGKERELVATISKSGGSTYYADSVKGRFTISRDNAKNTVYLEMNSLKPVDTAVYYCARRYGDYGRYGYWGQGTQVTVSS | high polyreactivity
25 | QVEVVESGGGLVQAGGSLRLSCAASGRNFRFNAMGWYRQAPGKERELVAAISFRGGSTYYADTVKGRFTISRDNAKNTVYGQINSLKPEDPAVYYCAARARTGTYRDMYYWGQGTQVTVSS | high polyreactivity
26 | QVQLQESGGGLVQAGGSLRLSCAASGNIVDADIMGWYRQAPRKERELVASITDGGSTNYADSVKGRFTISRDNAKNTVYLQMNSLIPEDTAVYYCAAISYPDIPTYFDYDSEYFYWGQGTQVSVSS | low polyreactivity
27 | QVQLVESGGGLVQAGGSLRLSCAASGSTSRYYDMGWYRQAPGKERELVATITISGITNYADSLKGRFTISRDNAKNTVYLQMNSLKPEDTAVYYCATVGPWPGEYDYWGQGTQVTVSS | low polyreactivity
28 | QVQLVESGGGLVQAGGSLRLSCAASGRTFGLNVMGWYRPAPGKDRELVATISGVGSTNYADSVKGRFTISRDNAKNTVYLQMNSLKPEDTAVYYCAAGGTSGQEFGYWGQGTQVTVSS | low polyreactivity
29 | QVQLVESGGGLVQAGCSLRLTCAASGRTFITNAKGWYRQAPVKERELVAAISSGTGGRTNYADSVKGRFTISRDNAKNTVYLQMNSRKPEDTAVYYCAARSTKYYPYGYWGQGTQVTLSS | high polyreactivity
30 | QFQLVESGGGLVQAGGSLRLSCAASGRTFIYYSMGWYRQAPGKERELVAAITRSGGSTNYADSVKGRFTISRDNSKNTVYIQMNSLKPEDTAVYYCAARFYGRRCIYGYWGQGTQVTVSS | high polyreactivity
31 | QVQLVESGGGLVQAGGSLRLSCAASGFTFSRNTMGWYRQAPGKERELVAAITWRGGSTYYADSVKGRFTISRDNAKNTVYLQMNSLKPEDTAVYYCAASSPNLEFDYWGQGTQVTVSS | high polyreactivity
32 | QVQLVESGGGLVQAGGSLRLSCAASGRNFDRNAMGWSRQAPGKERELVARIDPGDDTNYADSVKGRFTISRDNAKNTVYLQMNSLKPEDTAVYYCATDPDYVLYRTAYYEYDYWGQGTQVTVSS | low polyreactivity
33 | QVQLVESGGGLVQAGGSLRLSCAASGFTFVINDMGWNRQAPGKERELVADITSGGDTYYADSVKGRFTISRDNAKNTVDLQMNSLKPEDTAVYYCAADIYPDWIYLLYGYWGQGTQVTVSS | low polyreactivity
34 | QVQLVESGGGIVQAGGSLRLSCAASGSTFGGNAMGWYRQAPGKERELVAAITSGTGTHYADSVKGRFTISRDNAKNTVYLQMNSLKPEATAVYFCAAEVWSWAGIWGYEYWGQGTQVSVSS | low polyreactivity
35 | QVQLVESGGGLVQAGGSLRLSCAASGRIFVPYAMGWSRQAPGKEREFVAAISWNTGSTYYADSVKGRFTISRDNAKNTVYLQMNSLNPVDTAVYYCAAGSGVSYEGGYKINGYWGQGTQVTVSS | high polyreactivity
36 | QGQLVESGGGLVQAGGSLRLSCAASGLIFYKYAMGWYRQAPGKERELVAVISWSGGSTYYADSVKGRFTISRDNAKNTVYLQMNRLKPEDTAVYYCAADTSYYRIRGWFGRVDYGYWGQGTQVTVSS | high polyreactivity
37 | QVQLVESGGGLVQAGGSLRVSCAASGFTFDYYAMGWYRQAPGKEWEFVAAISSRGDDTYYADSVKGRFTISRDNAKNTVYLQMNSLKPEDTAVYYCAKVWRYGRYEYGYWGHGTQVTVSS | high polyreactivity
38 | QVQLVESGGGLVQAGRSLRLSCAASGLIFRYYPMGWYRQAPGKEREFVAAISGRGASTYYADSVKGRFTISRDYAKNSVYLQMNCLKPEDTAVYYCATFFPSAVVAFHMDYWGQGTQVTVSS | low polyreactivity
39 | QVQLVESGGVLVQAGGSLRLSCAASGSIFASNAMGWYRQAPGKEREFVAAISWSGTRTYYADSVKGRFTISRDTAKNTVYLQMNSLKPEDTAVYYCAALTVLRNDYWGLGTQVTVSS | low polyreactivity
40 | QVQLVESGGGLVQAGGSLRLSCAASGSIFFIYAMGLYRQAPGKERELVAGITSRGITNYADSVKGRFTISRDNAKNTVYLQMNSLKPEDTAVYYCAAGDENYTDRYDYWGQGTQVTVSS | low polyreactivity
41 | QVQLVESGGGLVQAGGSLRLSCAASGSTFLGYDMGWYRQAPGKERELVAAISIGGSTYYADSVKGRFTISRDNAKNTVYLQMNSLKPEDTAVYYCARVTWGHQVIYGLSDYDSWGQGTQVTVSS | low polyreactivity
42 | QVQLVESGGGLVQAGGSLRLSCAASGIIFIGNAMGWYRQAPGKERELVAAISSDGDSTYYADSVKGRFTISRDNAKNTVYLQMNSLKPEDTAVYYCAKDYYPDYYGLYLWPFDYWGQGTQVTVSS | high polyreactivity
43 | QVQLVESGGGLVQAGGSLRLSCAASGSIFKYNAMGWYRQAPGKERELVAAITIGGRTYYADSVKGRFTISRDNAKNTVYLQMNSLKPEDTAVYYCAGVVRALTIKYGYWGQGTQVTVSS | high polyreactivity

Source: the nanobody polyreactivity screen of Harvey et al. (2022)
